In US20210238296A1 (Genmab, published 2021):

T1: diFCGR2B-HisBAP (dimeric extracellular domain of FcγRIIB) (Homo sapiens (Human), UniProt P31994 44-223, C-terminally biotinylated)
T1 construct: dimeric, His-tagged, C-terminally biotinylated ECD
T1 sequence: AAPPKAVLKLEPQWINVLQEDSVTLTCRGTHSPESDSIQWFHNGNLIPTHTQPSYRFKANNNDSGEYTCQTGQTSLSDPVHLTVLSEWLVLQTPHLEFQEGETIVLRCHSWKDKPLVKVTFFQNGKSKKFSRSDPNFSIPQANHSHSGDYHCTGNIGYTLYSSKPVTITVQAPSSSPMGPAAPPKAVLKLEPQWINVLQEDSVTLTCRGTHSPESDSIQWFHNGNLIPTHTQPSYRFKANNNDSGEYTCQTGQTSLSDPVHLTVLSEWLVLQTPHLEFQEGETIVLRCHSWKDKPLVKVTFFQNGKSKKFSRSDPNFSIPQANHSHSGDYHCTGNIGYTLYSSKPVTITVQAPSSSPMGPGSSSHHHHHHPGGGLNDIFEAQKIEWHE

T2: diFCGR2AH-HisBAP (dimeric extracellular domain of FcγRIIA allotype 131H) (Homo sapiens (Human), UniProt P12318 34-215, C-terminally biotinylated)
T2 construct: dimeric, His-tagged, C-terminally biotinylated ECD; also called IIA-131H
T2 sequence: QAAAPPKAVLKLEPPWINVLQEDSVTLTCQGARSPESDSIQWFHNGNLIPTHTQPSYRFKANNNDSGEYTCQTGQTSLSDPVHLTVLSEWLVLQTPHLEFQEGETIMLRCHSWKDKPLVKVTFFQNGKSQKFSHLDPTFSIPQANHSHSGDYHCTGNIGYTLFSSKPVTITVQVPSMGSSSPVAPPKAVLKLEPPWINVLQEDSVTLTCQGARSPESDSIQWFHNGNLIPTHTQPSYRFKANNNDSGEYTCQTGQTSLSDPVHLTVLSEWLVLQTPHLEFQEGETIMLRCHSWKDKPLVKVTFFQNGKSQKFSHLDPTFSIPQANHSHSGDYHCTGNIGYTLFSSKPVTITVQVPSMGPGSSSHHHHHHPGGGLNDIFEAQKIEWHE

T3: diFCGR2AR-HisBAP (dimeric extracellular domain of FcγRIIA allotype 131R) (Homo sapiens (Human), UniProt P12318 36-215, C-terminally biotinylated)
T3 construct: dimeric, His-tagged, C-terminally biotinylated ECD; also called IIA-131R
T3 chain: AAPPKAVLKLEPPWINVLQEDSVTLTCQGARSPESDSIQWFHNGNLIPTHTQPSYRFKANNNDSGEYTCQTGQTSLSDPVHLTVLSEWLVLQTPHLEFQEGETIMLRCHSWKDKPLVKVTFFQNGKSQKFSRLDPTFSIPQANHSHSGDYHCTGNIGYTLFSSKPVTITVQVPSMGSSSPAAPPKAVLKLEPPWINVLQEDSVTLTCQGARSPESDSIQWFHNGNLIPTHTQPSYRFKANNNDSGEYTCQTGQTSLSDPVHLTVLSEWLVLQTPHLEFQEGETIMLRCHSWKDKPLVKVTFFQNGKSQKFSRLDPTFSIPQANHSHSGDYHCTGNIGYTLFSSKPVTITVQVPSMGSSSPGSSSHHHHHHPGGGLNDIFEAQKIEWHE


Key:
C1q = target: T4, C1q (human, UniProt P02745 23-245; P02746 28-253; P02747 29-245); assay: flow cytometry of C1q on antibody-opsonized Wien 133 cells, 20% NHS on ice
T4 construct: native C1q in 20% normal human serum, detected with rabbit anti-human C1q-FITC on antibody-opsonized Wien 133 cells; also called human C1q from normal human serum

[1] = target: T1, diFCGR2B-HisBAP (dimeric extracellular …); assay: ELISA, captured antibody 20 ug/mL, dimeric biotinylated FcγR ECD
[2] = target: T2, diFCGR2AH-HisBAP (dimeric extracellular …); assay: as above
[3] = target: T3, diFCGR2AR-HisBAP (dimeric extracellular …); assay: as above
[4] = target: T1, diFCGR2B-HisBAP (dimeric extracellular …); assay: ELISA, captured antibody, dimeric biotinylated FcγR ECD
[5] = target: T5, diFCGR3AV-HisBAP (dimeric extracellular domain of FcγRIIIA allotype 158V) (C-terminally biotinylated); assay: as above
T5 construct: dimeric, His-tagged, C-terminally biotinylated ECD; also called IIIA-158V

[6] = target: T6, diFCGR3AF-HisBAP (dimeric extracellular domain of FcγRIIIA allotype 158F) (C-terminally biotinylated); assay: as above
T6 construct: dimeric, His-tagged, C-terminally biotinylated ECD; also called IIIA-158F

[7] = target: T2, diFCGR2AH-HisBAP (dimeric extracellular …); assay: as above
[8] = target: T3, diFCGR2AR-HisBAP (dimeric extracellular …); assay: as above
[9] = target: FCGR1AECDHis (monomeric extracellular domain of FcγRIA) (Homo sapiens (Human), UniProt P12314 16-292); assay: ELISA, coated FCGR1AECD-His, 20 ug/mL antibody
[10] = target: T1, diFCGR2B-HisBAP (dimeric extracellular …); assay: FcγR ELISA, 20 ug/mL antibody
[11] = target: T2, diFCGR2AH-HisBAP (dimeric extracellular …); assay: FcγR ELISA, 20 ug/mL antibody
[12] = target: T3, diFCGR2AR-HisBAP (dimeric extracellular …); assay: FcγR ELISA, 20 ug/mL antibody

FCGR1AECDHis (monomeric extracellular domain of FcγRIA), sequence (P12314 other isoform, or with tags, fused parts or gaps limits assumed): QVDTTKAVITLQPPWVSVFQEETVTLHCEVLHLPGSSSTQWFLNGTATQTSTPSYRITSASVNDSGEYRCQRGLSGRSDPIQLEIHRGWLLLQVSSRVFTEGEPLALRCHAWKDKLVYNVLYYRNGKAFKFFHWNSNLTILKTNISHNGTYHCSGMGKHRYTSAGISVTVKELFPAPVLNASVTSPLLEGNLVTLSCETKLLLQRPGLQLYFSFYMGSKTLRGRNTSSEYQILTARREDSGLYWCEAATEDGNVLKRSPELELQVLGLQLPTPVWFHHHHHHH
T4 sequence (P02745 23-245 limits assumed, chain 1 of 3): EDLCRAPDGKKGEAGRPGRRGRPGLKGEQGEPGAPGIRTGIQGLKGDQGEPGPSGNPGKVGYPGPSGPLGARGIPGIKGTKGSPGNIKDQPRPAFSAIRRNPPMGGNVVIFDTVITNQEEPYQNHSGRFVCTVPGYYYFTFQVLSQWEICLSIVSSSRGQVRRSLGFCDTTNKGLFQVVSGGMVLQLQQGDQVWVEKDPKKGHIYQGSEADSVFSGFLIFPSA
T4 sequence (P02746 28-253 limits assumed, chain 2 of 3): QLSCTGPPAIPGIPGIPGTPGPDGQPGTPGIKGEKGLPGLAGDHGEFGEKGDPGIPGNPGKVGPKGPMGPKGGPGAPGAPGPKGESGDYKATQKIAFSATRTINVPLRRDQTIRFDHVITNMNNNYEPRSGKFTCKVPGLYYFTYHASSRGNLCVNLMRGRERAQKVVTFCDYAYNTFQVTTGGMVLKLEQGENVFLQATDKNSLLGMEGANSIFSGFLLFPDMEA
T4 sequence (P02747 29-245 limits assumed, chain 3 of 3): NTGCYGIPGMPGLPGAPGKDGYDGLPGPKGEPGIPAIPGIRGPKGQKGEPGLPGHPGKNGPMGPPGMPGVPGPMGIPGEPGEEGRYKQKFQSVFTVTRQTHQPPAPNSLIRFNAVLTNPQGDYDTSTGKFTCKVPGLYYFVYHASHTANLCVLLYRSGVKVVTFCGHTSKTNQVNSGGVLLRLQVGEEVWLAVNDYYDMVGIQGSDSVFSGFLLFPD

binding result [4] | binding result [5] | binding result [6] | binding result [7] | binding result [8] | binding result [9] | Binder | also measured
– | – | – | – | – | – | IgG1-11B8-E430G-S440K-K326A (antibody, also called IgG1-11B8-K326A-E430G-S440K) heavy: EVQLVQSGGGLVHPGGSLRLSCTGSGFTFSYHAMHWVRQAPGKGLEWVSIIGTGGVTYYADSVKGRFTISRDNVKNSLYLQMNSLRAEDMAVYYCARDYYGAGSFYDGLYGMDVWGQGTTVTVSSASTKGPSVFPLAPSSKSTSGGTAALGCLVKDYFPEPVTVSWNSGALTSGVHTFPAVLQSSGLYSLSSVVTVPSSSLGTQTYICNVNHKPSNTKVDKRVEPKSCDKTHTCPPCPAPELLGGPSVFLFPPKPKDTLMISRTPEVTCVVVDVSHEDPEVKFNWYVDGVEVHNAKTKPREEQYNSTYRVVSVLTVLHQDWLNGKEYKCKVSNAALPAPIEKTISKAKGQPREPQVYTLPPSREEMTKNQVSLTCLVKGFYPSDIAVEWESNGQPENNYKTTPPVLDSDGSFFLYSKLTVDKSRWQQGNVFSCSVMHGALHNHYTQKKLSLSPGK light: not shown | binding result (C1q): binds; binding result [1]: binds; binding result [2]: binds; binding result [3]: binds
no binding (tested: 20 µg/mL) | no binding (tested: 20 µg/mL) | no binding (tested: 20 µg/mL) | no binding (tested: 20 µg/mL) | no binding (tested: 20 µg/mL) | binds | IgG1-CAMPATH-1H-E430G-K439E-G236R (antibody, also called IgG1-CAMPATH-1H-G236R-E430G-K439E; IgG1-CAMPATH-E430G-K439E-G236R) heavy: QVQLQESGPGLVRPSQTLSLTCTVSGFTFTDFYMNWVRQPPGRGLEWIGFIRDKAKGYTTEYNPSVKGRVTMLVDTSKNQFSLRLSSVTAADTAVYYCAREGHTAAPFDYWGQGSLVTVSSASTKGPSVFPLAPSSKSTSGGTAALGCLVKDYFPEPVTVSWNSGALTSGVHTFPAVLQSSGLYSLSSVVTVPSSSLGTQTYICNVNHKPSNTKVDKRVEPKSCDKTHTCPPCPAPELLRGPSVFLFPPKPKDTLMISRTPEVTCVVVDVSHEDPEVKFNWYVDGVEVHNAKTKPREEQYNSTYRVVSVLTVLHQDWLNGKEYKCKVSNKALPAPIEKTISKAKGQPREPQVYTLPPSREEMTKNQVSLTCLVKGFYPSDIAVEWESNGQPENNYKTTPPVLDSDGSFFLYSKLTVDKSRWQQGNVFSCSVMHGALHNHYTQESLSLSPGK light: not shown | –
no binding (tested: 20 µg/mL) | no binding (tested: 20 µg/mL) | no binding (tested: 20 µg/mL) | no binding (tested: 20 µg/mL) | no binding (tested: 20 µg/mL) | binds | IgG1-CAMPATH-1H-E430G-K439E-G237T (antibody, also called IgG1-CD52-Campath-G237T-E430G-K439E) heavy: QVQLQESGPGLVRPSQTLSLTCTVSGFTFTDFYMNWVRQPPGRGLEWIGFIRDKAKGYTTEYNPSVKGRVTMLVDTSKNQFSLRLSSVTAADTAVYYCAREGHTAAPFDYWGQGSLVTVSSASTKGPSVFPLAPSSKSTSGGTAALGCLVKDYFPEPVTVSWNSGALTSGVHTFPAVLQSSGLYSLSSVVTVPSSSLGTQTYICNVNHKPSNTKVDKRVEPKSCDKTHTCPPCPAPELLGTPSVFLFPPKPKDTLMISRTPEVTCVVVDVSHEDPEVKFNWYVDGVEVHNAKTKPREEQYNSTYRVVSVLTVLHQDWLNGKEYKCKVSNKALPAPIEKTISKAKGQPREPQVYTLPPSREEMTKNQVSLTCLVKGFYPSDIAVEWESNGQPENNYKTTPPVLDSDGSFFLYSKLTVDKSRWQQGNVFSCSVMHGALHNHYTQESLSLSPGK light: not shown | –
– | – | – | – | – | binds | IgG1-CAMPATH-1H-E430G-K439E-G237R (antibody, also called IgG1-CD52-Campath-G237R-E430G-K439E) heavy: QVQLQESGPGLVRPSQTLSLTCTVSGFTFTDFYMNWVRQPPGRGLEWIGFIRDKAKGYTTEYNPSVKGRVTMLVDTSKNQFSLRLSSVTAADTAVYYCAREGHTAAPFDYWGQGSLVTVSSASTKGPSVFPLAPSSKSTSGGTAALGCLVKDYFPEPVTVSWNSGALTSGVHTFPAVLQSSGLYSLSSVVTVPSSSLGTQTYICNVNHKPSNTKVDKRVEPKSCDKTHTCPPCPAPELLGRPSVFLFPPKPKDTLMISRTPEVTCVVVDVSHEDPEVKFNWYVDGVEVHNAKTKPREEQYNSTYRVVSVLTVLHQDWLNGKEYKCKVSNKALPAPIEKTISKAKGQPREPQVYTLPPSREEMTKNQVSLTCLVKGFYPSDIAVEWESNGQPENNYKTTPPVLDSDGSFFLYSKLTVDKSRWQQGNVFSCSVMHGALHNHYTQESLSLSPGK light: not shown | –
– | – | – | – | – | binds | IgG1-CAMPATH-1H-E430G-K439E-K322A (antibody, also called IgG1-CAMPATH-1H-K322A-E430G-K439E) heavy: QVQLQESGPGLVRPSQTLSLTCTVSGFTFTDFYMNWVRQPPGRGLEWIGFIRDKAKGYTTEYNPSVKGRVTMLVDTSKNQFSLRLSSVTAADTAVYYCAREGHTAAPFDYWGQGSLVTVSSASTKGPSVFPLAPSSKSTSGGTAALGCLVKDYFPEPVTVSWNSGALTSGVHTFPAVLQSSGLYSLSSVVTVPSSSLGTQTYICNVNHKPSNTKVDKRVEPKSCDKTHTCPPCPAPELLGGPSVFLFPPKPKDTLMISRTPEVTCVVVDVSHEDPEVKFNWYVDGVEVHNAKTKPREEQYNSTYRVVSVLTVLHQDWLNGKEYKCAVSNKALPAPIEKTISKAKGQPREPQVYTLPPSREEMTKNQVSLTCLVKGFYPSDIAVEWESNGQPENNYKTTPPVLDSDGSFFLYSKLTVDKSRWQQGNVFSCSVMHGALHNHYTQESLSLSPGK light: not shown | binding result [10]: binds; binding result [11]: binds; binding result [12]: binds
– | – | – | – | – | binds | IgG1-CAMPATH-1H-E430G-K439E-G237Q (antibody, also called IgG1-CD52-Campath-G237Q-E430G-K439E) heavy: QVQLQESGPGLVRPSQTLSLTCTVSGFTFTDFYMNWVRQPPGRGLEWIGFIRDKAKGYTTEYNPSVKGRVTMLVDTSKNQFSLRLSSVTAADTAVYYCAREGHTAAPFDYWGQGSLVTVSSASTKGPSVFPLAPSSKSTSGGTAALGCLVKDYFPEPVTVSWNSGALTSGVHTFPAVLQSSGLYSLSSVVTVPSSSLGTQTYICNVNHKPSNTKVDKRVEPKSCDKTHTCPPCPAPELLGQPSVFLFPPKPKDTLMISRTPEVTCVVVDVSHEDPEVKFNWYVDGVEVHNAKTKPREEQYNSTYRVVSVLTVLHQDWLNGKEYKCKVSNKALPAPIEKTISKAKGQPREPQVYTLPPSREEMTKNQVSLTCLVKGFYPSDIAVEWESNGQPENNYKTTPPVLDSDGSFFLYSKLTVDKSRWQQGNVFSCSVMHGALHNHYTQESLSLSPGK light: not shown | –
